Data as given in US20130109581A1, “POSITIVELY CHARGED SPECIES AS BINDING REAGENTS IN THE SEPARATION OF PROTEIN AGGREGATES FROM MONOMERS” (priority 2009, published 2013).

Key:
[1] = biological target: Abeta (1-42) aggregates from Alzheimer's Disease Brain Homogenate (human) (UniProt P05067); experiment: MPA, AD brain homogenate in plasma, Abeta(1-42) ELISA
[2] = biological target: Abeta (1-42) aggregates from Alzheimer's Disease Brain Homogenate (human) (UniProt P05067); experiment: MPA, AD brain homogenate in CSF, Abeta(1-42) ELISA
[3] = biological target: Abeta 1-40 monomer (UniProt P05067); experiment: MPA bead capture, Abeta 1-40 read-out of the CSF sample (noise)

| Substance | limit of detection [1] [mL/assay] | limit of detection [2] [mL/assay] | average RLU (40) [3] [RLU] |
| --- | --- | --- | --- |
| peptoid +++++++ | 2.5 | 1.6 |  |
| AKKKKA (peptide) |  |  | 156 |
| link-KKKFKF (peptide) |  |  | 279 |
